Results as given in patent US20020094516.

Tests used:
[1] = test system: T1, phiC31 integrase mutant 1C1 (Phage phiC31); test: cell_activity; conditions: human 293 cells, attB plasmid integration into genome; integration at psiA shown by PCR
T1 sequence: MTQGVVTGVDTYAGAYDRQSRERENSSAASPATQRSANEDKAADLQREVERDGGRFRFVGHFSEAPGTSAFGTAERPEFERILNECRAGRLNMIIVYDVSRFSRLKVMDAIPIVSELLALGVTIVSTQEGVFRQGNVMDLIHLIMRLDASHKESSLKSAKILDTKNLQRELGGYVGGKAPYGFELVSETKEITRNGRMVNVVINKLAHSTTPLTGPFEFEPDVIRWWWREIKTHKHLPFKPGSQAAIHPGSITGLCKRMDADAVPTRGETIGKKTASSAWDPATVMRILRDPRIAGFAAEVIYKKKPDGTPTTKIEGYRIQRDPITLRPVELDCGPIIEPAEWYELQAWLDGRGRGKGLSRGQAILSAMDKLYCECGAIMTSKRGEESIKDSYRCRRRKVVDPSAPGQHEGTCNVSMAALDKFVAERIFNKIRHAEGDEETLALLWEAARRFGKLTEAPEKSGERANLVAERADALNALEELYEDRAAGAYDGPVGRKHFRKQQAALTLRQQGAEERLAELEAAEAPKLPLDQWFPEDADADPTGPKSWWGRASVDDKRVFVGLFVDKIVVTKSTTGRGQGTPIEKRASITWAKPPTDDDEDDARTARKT

[2] = test system: T2, phiC31 integrase wild-type (Phage phiC31); test: cell_activity; conditions: human 293 cells, attB plasmid integration into genome, G418 selection
T2 sequence: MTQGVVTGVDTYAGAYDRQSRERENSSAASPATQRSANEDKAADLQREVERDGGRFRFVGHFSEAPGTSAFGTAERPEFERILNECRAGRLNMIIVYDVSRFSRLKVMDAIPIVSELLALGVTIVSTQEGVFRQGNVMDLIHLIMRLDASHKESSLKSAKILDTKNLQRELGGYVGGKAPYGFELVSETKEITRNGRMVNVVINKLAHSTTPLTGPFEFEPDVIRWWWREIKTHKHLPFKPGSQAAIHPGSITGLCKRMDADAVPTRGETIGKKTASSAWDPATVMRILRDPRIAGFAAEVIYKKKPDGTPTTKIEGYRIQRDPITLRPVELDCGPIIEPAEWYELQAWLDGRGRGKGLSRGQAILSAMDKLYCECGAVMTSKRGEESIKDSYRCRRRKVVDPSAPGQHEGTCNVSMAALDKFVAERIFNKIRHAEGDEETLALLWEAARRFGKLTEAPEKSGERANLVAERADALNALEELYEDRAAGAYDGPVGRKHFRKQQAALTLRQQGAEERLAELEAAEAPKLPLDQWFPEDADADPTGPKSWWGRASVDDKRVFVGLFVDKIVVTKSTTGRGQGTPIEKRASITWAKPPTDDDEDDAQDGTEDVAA

For “CGATGTAGGTCACGGTCTCGAAGCCGCGGTGCGGGTGCCAGGGCGTGCCCTTGGGCTCCCCGGGCGCGTACTCCACCTCACCCATCTGGTCCATCATGATGAACGGGTCGAGGTGGCGGTAGTTGATCCCGGCGAACGCGCGGCGCACCGGGAAGCCCTCGCCCTCGAAACCGCTGGGCGCGGTGGTCACGGTGAGCACGGGACGTGCGACGGCGTCGGCGGGTGCGGATACGCGGGGCAGCGTCAGCGGGTTCTCGACGGTCACGGCGGGCATGTCGA (double strand) [phiC31 attB (full length)]”, the integration activity (fold colonies vs wild-type integrase) [1] was 2 and the activity (fold colonies over background) [2] was > 10.
